Data from patent US20070099830A1 (MIT, published 2007).

Target: T1, glutamate dehydrogenase (endogenous, 293T cells) (human, UniProt P00367 54-558, ADP-ribosylated (32P-labelled) in the mitochondrial labelling experiments; site not stated)
T1 construct: Endogenous protein in 293T lysate or mitochondria; also called GDH
Experiment: anti-FLAG immunoprecipitation from 32P-NAD labelled mitochondria of 293T cells overexpressing Sirt4-FLAG, autoradiography
Description: FIG. 5. Glutamate dehydrogenase is ADP-ribosylated in vivo and interacts with Sirt4. FIG. 5A. Mitochondria (50 mg) from 293T cells were incubated with [³²P]-NAD at 37° C. for 30 min. Proteins were separated by SDS-PAGE, transferred to a nitrocellulose membrane, and radioactivity was measured by exposure to film. FIG. 5B. Mitochondrial proteins were ADP-ribosylated as described for FIG. 5A, and lysis was performed in NP-40 buffer containing 10 mM DTT and 0.5 mM EDTA. Clarified lysate was incubated with protein A resin that had been pre-incubated with antibodies against hSirt4, ANT or glutamate dehydrogenase (GDH). FIG. 5C. 293T cells were transiently transfected with 10 μg of pCMV (V) or phSirt4-FLAG (4). Cells were harvested and lysed in NP-40 buffer containing protease inhibitors and 1 mM DTT. […] An endogenous interaction between Sirt4 and glutamate dehydrogenase was determined in MIN6 cells. […] Proteins were separated by SDS-PAGE, transferred to nitrocellulose membrane, and the radioactivity was measured by exposure to x-ray film.
Mitochondria from 293T control or Sirt4-FLAG overexpressing cells were incubated with [³²P]-NAD, and the ADP-ribosylation state of glutamate dehydrogenase was measured by immunoprecipitation and subsequent autoradiography. […] Moreover, a small amount of labeled glutamate dehydrogenase could be detected in a complex with Sirt4 (FIG. 5E).

T1 sequence (P00367 54-558): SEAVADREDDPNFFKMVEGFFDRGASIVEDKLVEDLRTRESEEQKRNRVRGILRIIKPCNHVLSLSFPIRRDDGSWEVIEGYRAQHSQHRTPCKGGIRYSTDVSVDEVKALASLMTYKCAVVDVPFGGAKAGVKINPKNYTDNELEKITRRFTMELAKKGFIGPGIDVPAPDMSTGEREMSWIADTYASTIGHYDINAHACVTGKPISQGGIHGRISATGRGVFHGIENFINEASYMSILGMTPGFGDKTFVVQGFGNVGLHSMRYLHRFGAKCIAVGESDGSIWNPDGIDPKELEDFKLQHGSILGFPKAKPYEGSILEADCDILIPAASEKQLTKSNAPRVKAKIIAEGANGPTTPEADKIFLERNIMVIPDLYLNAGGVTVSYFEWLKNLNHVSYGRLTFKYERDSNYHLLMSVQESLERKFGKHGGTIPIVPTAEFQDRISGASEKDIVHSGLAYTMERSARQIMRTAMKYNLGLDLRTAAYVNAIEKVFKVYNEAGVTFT

B1: human Sirt4 with a C-terminal FLAG (enzyme)
chain: IGLFVPASPPLDPEKVKELQRFITLSKRLLVMTGAGISTESGIPDYRSEKVGLYARTDRRPIQHGDFVRSAPIRQRYWARNFVGWPQFSSHQPNPAHWALSTWEKLGKLYWLVTQNVDALHTKAGSRRLTELHGCMDRVLCLDCGEQTPRGVLQERFQVLNPTWSAEAHGLAPDGDVFLSEEQVRSFQVPTCVQCGGHLKPDVVFFGDTVNPDKVDFVHKRVKEADSLLVVGSSLQVYSGYRFILTAWEKKLPIAILNIGPTRSDDLACLKLNSRCGELLPLIDPC
notes: Overexpressed in 293T cells from phSirt4FLAG; Used in cell lysate or immunoprecipitated and eluted with FLAG peptide; also called hSirt4-FLAG; Sirt4-FLAG; not shown: C-terminal FLAG tag from vector pCMV-FLAG-4A
B1: binds.
